Square brackets hold non-standard residues; d marks the D form. Ends that are not written are not given here. Nle = CCCC[C@H](N)C(=O)O
molecular target: human Y4 receptor (human, UniProt P50391 1-375); experiment: cell-based or functional assay
Sequence (P50391 whole entry): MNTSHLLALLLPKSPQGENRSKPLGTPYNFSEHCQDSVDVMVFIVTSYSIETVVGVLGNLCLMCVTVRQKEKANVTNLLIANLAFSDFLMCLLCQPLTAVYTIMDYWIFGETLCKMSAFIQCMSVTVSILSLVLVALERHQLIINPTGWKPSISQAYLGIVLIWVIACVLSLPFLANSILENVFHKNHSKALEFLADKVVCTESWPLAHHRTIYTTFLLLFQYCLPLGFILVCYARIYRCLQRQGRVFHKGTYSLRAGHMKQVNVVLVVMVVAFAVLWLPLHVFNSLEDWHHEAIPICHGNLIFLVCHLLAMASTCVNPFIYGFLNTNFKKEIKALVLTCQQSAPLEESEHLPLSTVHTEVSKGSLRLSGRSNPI

Binder | agonist potency (inositol phosphate turnover, transfected COS-7 cells): fold greater at Y4 than at Y1 receptor [fold] | agonist potency (inositol phosphate turnover, transfected COS-7 cells): fold greater at Y4 than at Y2 receptor [fold]
LEPVYPGENATPEQ[Nle]AQYAADLRRYIN[Nle]LTRPRY (ends and bridges not checked) [[Glu10,Nle17,Nle30]hPP3-36] | ≥ 200 | ≥ 1000
LEPVYPGDNATPEQMAQYAADLRRYINMLTRPRY-NH2 [hPP3-36] | ≥ 200 | ≥ 1000
LEPVYPGDNATPEQ[Nle]AQYAADLRRYIN[Nle]LTRPRY (ends and bridges not checked) [[Nle17,Nle30]hPP3-36] | ≥ 200 | ≥ 1000
PLEPVYPGDNATPEQMAQYAADLRRYINTLTRPRY (ends and bridges not checked) [[Thr30]hPP2-36] | ≥ 200 | ≥ 1000
PLEPVYPGDNATPEQXAQYAADLRRYINXLTRPRY (norleucine (Nle) at positions 17 and 30, numbered on full-length hPP (SEQ ID No:3)) [[Nle17,Nle30]hPP2-36] | ≥ 200 | ≥ 1000
PLEPVYPGENATPEQXAQYAADLRRYINXLTRPRY (norleucine (Nle) at positions 17 and 30, numbered on full-length hPP (SEQ ID No:3)) [[Glu10,Nle17,Nle30]hPP2-36] | ≥ 200 | ≥ 1000
PLEPVYPGENATPEQLAQYAADLRRYINTLTRPRY (ends and bridges not checked) [[Glu10,Leu17,Thr30]hPP2-36] | ≥ 200 | ≥ 1000
PLEPVYPGDNATPEQLAQYAADLRRYINSLTRPRY (ends and bridges not checked) [[Leu17; Ser30]hPP2-36] | ≥ 200 | ≥ 1000
PLEPVYPGDNATPEQMAQYAADLRRYINQLTRPRY (ends and bridges not checked) [[Gln30]hPP2-36] | ≥ 200 | ≥ 1000
PLEPVYPGDNATPEQLAQYAADLRRYINTLTRPRY (ends and bridges not checked) [[Leu17; Thr30]hPP2-36] | ≥ 200 | ≥ 1000
PLEPVYPGENATPEQMAQYAADLRRYINMLTRPRY (ends and bridges not checked) [[Glu10]hPP2-36] | ≥ 200 | ≥ 1000
PLEPVYPGDNATPEQMAQYAADLRRYINALTRPRY (ends and bridges not checked) [[Ala30]hPP2-36] | ≥ 200 | ≥ 1000
PLEPVYPGDNATPEQMAQYAADLRRYINNLTRPRY (ends and bridges not checked) [[Asn30]hPP2-36] | ≥ 200 | ≥ 1000
LEPVYPGDNATPEQMAQYAADLRRYINALTRPRY (ends and bridges not checked) [[Ala30]hPP3-36] | ≥ 200 | ≥ 1000
LEPVYPGDNATPEQMAQYAADLRRYINQLTRPRY (ends and bridges not checked) [[Gln30]hPP3-36] | ≥ 200 | ≥ 1000
LEPVYPGENATPEQMAQYAADLRRYINMLTRPRY (ends and bridges not checked) [[Glu10]hPP3-36] | ≥ 200 | ≥ 1000

Binder | agonist potency (inositol phosphate turnover, transfected COS-7 cells): fold greater at Y4 than at Y1 receptor [fold] | agonist potency (inositol phosphate turnover, transfected COS-7 cells): fold greater at Y4 than at Y2 receptor [fold]
LEPVYPGDNATPEQLAQYAADLRRYINSLTRPRY (ends and bridges not checked) [[Leu17; Ser30]hPP3-36] | ≥ 200 | ≥ 1000
LEPVYPGENATPEQLAQYAADLRRYINTLTRPRY (ends and bridges not checked) [[Glu10,Leu17,Thr30]hPP3-36] | ≥ 200 | ≥ 1000
LEPVYPGDNATPEQMAQYAADLRRYINNLTRPRY (ends and bridges not checked) [[Asn30]hPP3-36] | ≥ 200 | ≥ 1000
LEPVYPGDNATPEQLAQYAADLRRYINTLTRPRY (ends and bridges not checked) [[Leu17; Thr30]hPP3-36] | ≥ 200 | ≥ 1000
LEPVYPGDNATPEQMAQYAADLRRYINTLTRPRY (ends and bridges not checked) [[Thr30]hPP3-36] | ≥ 200 | ≥ 1000
PLEPVYPGDNATPEQMAQYAADLRRYINMLTRPRY-NH2 [hPP2-36] | ≥ 200 | ≥ 1000
APLEPVYPGDNATPEQMAQYAADLRRYINALTRPRY (ends and bridges not checked) [[Ala30]hPP] | ≥ 200 | ≥ 1000
APLEPVYPGDNATPEQXAQYAADLRRYINXLTRPRY (norleucine (Nle) at positions 17 and 30) [[Nle17,Nle30]hPP] | ≥ 200 | ≥ 1000
APLEPVYPGENATPEQLAQYAADLRRYINTLTRPRY (ends and bridges not checked) [[Glu10,Leu17,Thr30]hPP] | ≥ 200 | ≥ 1000
APLEPVYPGDNATPEQLAQYAADLRRYINSLTRPRY (ends and bridges not checked) [[Leu17; Ser30]hPP] | ≥ 200 | ≥ 1000
APLEPVYPGDNATPEQMAQYAADLRRYINQLTRPRY (ends and bridges not checked) [[Gln30]hPP] | ≥ 200 | ≥ 1000
APLEPVYPGDNATPEQMAQYAADLRRYINTLTRPRY (ends and bridges not checked) [[Thr30]hPP] | ≥ 200 | ≥ 1000
APLEPVYPGDNATPEQMAQYAADLRRYINNLTRPRY (ends and bridges not checked) [[Asn30]hPP] | ≥ 200 | ≥ 1000
APLEPVYPGENATPEQXAQYAADLRRYINXLTRPRY (norleucine (Nle) at positions 17 and 30) [[Glu10,Nle17,Nle30]hPP] | ≥ 200 | ≥ 1000
APLEPVYPGENATPEQMAQYAADLRRYINMLTRPRY (ends and bridges not checked) [[Glu10]hPP] | ≥ 200 | ≥ 1000
APLEPVYPGDNATPEQLAQYAADLRRYINTLTRPRY (ends and bridges not checked) [[Leu17; Thr30]hPP] | ≥ 200 | ≥ 1000

Reference: US20110251126A1, “INTESTINAL TREATMENT” (priority 2008, published 2011)
